This data set concerns the molecule itself. Nature of the data set: SEC; size exclusion chromatography of purified full-length citrin and of the calcium-binding site mutant; column and buffer not told. On the technique in general: Size exclusion chromatography separates by hydrodynamic size, large species first.

B1: human citrin (mitochondrial aspartate/glutamate carrier isoform 2), full-length wild type (natural protein, UniProt Q9UJS0-1 1-675, looked up)
chain: MAAAKVALTKRADPAELRTIFLKYASIEKNGEFFMSPNDFVTRYLNIFGESQPNPKTVELLSGVVDQTKDGLISFQEFVAFESVLCAPDALFMVAFQLFDKAGKGEVTFEDVKQVFGQTTIHQHIPFNWDSEFVQLHFGKERKRHLTYAEFTQFLLEIQLEHAKQAFVQRDNARTGRVTAIDFRDIMVTIRPHVLTPFVEECLVAAAGGTTSHQVSFSYFNGFNSLLNNMELIRKIYSTLAGTRKDVEVTKEEFVLAAQKFGQVTPMEVDILFQLADLYEPRGRMTLADIERIAPLEEGTLPFNLAEAQRQKASGDSARPVLLQVAESAYRFGLGSVAGAVGATAVYPIDLVKTRMQNQRSTGSFVGELMYKNSFDCFKKVLRYEGFFGLYRGLLPQLLGVAPEKAIKLTVNDFVRDKFMHKDGSVPLAAEILAGGCAGGSQVIFTNPLEIVKIRLQVAGEITTGPRVSALSVVRDLGFFGIYKGAKACFLRDIPFSAIYFPCYAHVKASFANEDGQVSPGSLLLAGAIAGMPAASLVTPADVIKTRLQVAARAGQTTYSGVIDCFRKILREEGPKALWKGAGARVFRSSPQFGVTLLTYELLQRWFYIDFGGVKPMGSEPVPKSRINLPAPNPDHVGGYKLAVATFAGIENKFGLYLPLFKPSVSTSKAIGGGP
notes: human citrin (AGC2), full length, codon-optimised cDNA; UniProt Q9UJS0, isoform NP_055066.1; The tag is followed by a TEV site (ENLYFQG); the protein was released from the resin by TEV digestion; NP_055066.1 is printed for the mammalian construct; the yeast construct is called a codon-optimised cDNA of human citrin; also called AGC2; wild-type citrin; source: S. cerevisiae W303-1B, mitochondria …
Take B1: the stoichiometry N (in general, a count of units in the complex or per binding partner) was 2.

B2: human citrin D66A/T68A/D70A/E77A, full-length calcium-binding site mutant (natural protein, UniProt Q9UJS0-1 1-675, looked up)
chain: MAAAKVALTKRADPAELRTIFLKYASIEKNGEFFMSPNDFVTRYLNIFGESQPNPKTVELLSGVVAQAKAGLISFQAFVAFESVLCAPDALFMVAFQLFDKAGKGEVTFEDVKQVFGQTTIHQHIPFNWDSEFVQLHFGKERKRHLTYAEFTQFLLEIQLEHAKQAFVQRDNARTGRVTAIDFRDIMVTIRPHVLTPFVEECLVAAAGGTTSHQVSFSYFNGFNSLLNNMELIRKIYSTLAGTRKDVEVTKEEFVLAAQKFGQVTPMEVDILFQLADLYEPRGRMTLADIERIAPLEEGTLPFNLAEAQRQKASGDSARPVLLQVAESAYRFGLGSVAGAVGATAVYPIDLVKTRMQNQRSTGSFVGELMYKNSFDCFKKVLRYEGFFGLYRGLLPQLLGVAPEKAIKLTVNDFVRDKFMHKDGSVPLAAEILAGGCAGGSQVIFTNPLEIVKIRLQVAGEITTGPRVSALSVVRDLGFFGIYKGAKACFLRDIPFSAIYFPCYAHVKASFANEDGQVSPGSLLLAGAIAGMPAASLVTPADVIKTRLQVAARAGQTTYSGVIDCFRKILREEGPKALWKGAGARVFRSSPQFGVTLLTYELLQRWFYIDFGGVKPMGSEPVPKSRINLPAPNPDHVGGYKLAVATFAGIENKFGLYLPLFKPSVSTSKAIGGGP
notes: Same construct as m1 apart from the four substitutions; also called quadruple alanine mutant; quadruple mutant; source: S. cerevisiae W303-1B, mitochondria solubilised in LMNG, purified (nickel Sepharose, on-column TEV digestion); not shown: His8, N-terminal, cleaved
As for B2, the “stoichiometry N” value was found to be 2.
